± gives the standard deviation of the averaged measurements.
Assay: total protein half-life in vivo (active degradation + dilution); higher = more stable protein
[1] = E. coli NCM3722 delta-clpP delta-lon delta-hslV, growth: N-lim chemostat, doubling time 6 h
[2] = E. coli NCM3722 delta-lon, growth: N-lim chemostat, doubling time 6 h
[3] = wild type E. coli NCM3722, growth: C-lim chemostat, doubling time 3 h
[4] = wild type E. coli NCM3722, growth: C-lim chemostat, doubling time 6 h
[5] = wild type E. coli NCM3722, growth: C-lim chemostat, doubling time 12 h
[6] = wild type E. coli NCM3722, growth: P-lim chemostat, doubling time 6 h
[7] = wild type E. coli NCM3722, growth: P-lim chemostat, doubling time 12 h
[8] = E. coli NCM3722 delta-clpP, growth: N-lim chemostat, doubling time 6 h
[9] = E. coli NCM3722 delta-hslV, growth: N-lim chemostat, doubling time 6 h
[10] = E. coli NCM3722 delta-smpB, growth: N-lim chemostat, doubling time 6 h
[11] = wild type E. coli NCM3722, growth: N-lim chemostat, doubling time 6 h
[12] = wild type E. coli NCM3722, growth: N-lim chemostat, doubling time 12 h

Sequence	total protein half-life in vivo [1] [h]	total protein half-life in vivo [2] [h]	total protein half-life in vivo [3] [h]	total protein half-life in vivo [4] [h]	total protein half-life in vivo [5] [h]	total protein half-life in vivo [6] [h]	total protein half-life in vivo [7] [h]	total protein half-life in vivo [8] [h]	total protein half-life in vivo [9] [h]	total protein half-life in vivo [10] [h]	total protein half-life in vivo [11] [h]	total protein half-life in vivo [12] [h]
MPTSHENALQQRCQQIVTSPVLSPEQKRHFLALEAENNLPYPQLPAEARRALDEGVICDMFEGHAPYKPRYVLPDYARFLANGSEWLELEGAKDLDDALSLLTILYHHVPSVTSMPVYLGQLDALLQPYVRILTQDEIDVRIKRFWRYLDRTLPDAFMHANIGPSDSPITRAILRADAELKQVSPNLTFIYDPEITPDDLLLEVAKNICECSKPHIANGPVHDKIFTKGGYGIVSCYNSLPLAGGGSTLVRLNLKAIAERSESLDDFFTRTLPHYCQQQIAIIDARCEFLYQQSHFFENSFLVKEGLINPERFVPMFGMYGLAEAVNLLCEKEGIAARYGKEAAANEVGYRISAQLAEFVANTPVKYGWQKRAMLHAQSGISSDIGTTPGARLPYGDEPDPITHLQTVAPHHAYYYSGISDILTLDETIKRNPQALVQLCLGAFKAGMREFTANVSGNDLVRVTGYMVRLSDLEKYRAEGSRTNTTWLGEEAARNTRILERQPRVISHEQQMRFSQ	4.57	3.47	2.7	3.94	6.17	3.51	5.66					
MPVITLPDGSQRHYDHAVSPMDVALDIGPGLAKACIAGRVNGELVDACDLIENDAQLSIITAKDEEGLEIIRHSCAHLLGHAIKQLWPHTKMAIGPVIDNGFYYDVDLDRTLTQEDVEALEKRMHELAEKNYDVIKKKVSWHEARETFANRGESYKVSILDENIAHDDKPGLYFHEEYVDMCRGPHVPNMRFCHHFKLMKTAGAYWRGDSNNKMLQRIYGTAWADKKALNAYLQRLEEAAKRDHRKIGKQLDLYHMQEEAPGMVFWHNDGWTIFRELEVFVRSKLKEYQYQEVKGPFMMDRVLWEKTGHWDNYKDAMFTTSSENREYCIKPMNCPGHVQIFNQGLKSYRDLPLRMAEFGSCHRNEPSGSLHGLMRVRGFTQDDAHIFCTEEQIRDEVNGCIRLVYDMYSTFGFEKIVVKLSTRPEKRIGSDEMWDRAEADLAVALEENNIPFEYQLGEGAFYGPKIEFTLYDCLDRAWQCGTVQLDFSLPSRLSASYVGEDNERKVPVMIHRAILGSMERFIGILTEEFAGFFPTWLAPVQVVIMNITDSQSEYVNELTQKLSNAGIRVKADLRNEKIGFKIREHTLRRVPYMLVCGDKEVESGKVAVRTRRGKDLGSMDVNEVIEKLQQEIRSRSLKQLEE [P0A8M3]	5.73 ± 0.81	6.36 ± 0.29	3.18 ± 0.052	6.43 ± 0.58	11.3 ± 0.88	5.99 ± 0.14	13.3 ± 0.97	5.78 ± 1.1	5.411 ± 0.034	5.34 ± 0.06	5.35 ± 0.11	9.648 ± 0.077
MPYDSVYSEKRPPGTLRTAWRKFYSDASAMVGLYGCAGLAVLCIFGGWFAPYGIDQQFLGYQLLPPSWSRYGEVSFFLGTDDLGRDVLSRLLSGAAPTVGGAFVVTLAATICGLVLGTFAGATHGLRSAVLNHILDTLLAIPSLLLAIIVVAFAGPSLSHAMFAVWLALLPRMVRSIYSMVHDELEKEYVIAARLDGASTLNILWFAVMPNITAGLVTEITRALSMAILDIAALGFLDLGAQLPSPEWGAMLGDALELIYVAPWTVMLPGAAIMISVLLVNLLGDGVRRAIIAGVE [P0AGH5]	6.49		3.28 ± 0.12		11.5	5.92	13.7	6.66			6.2 ± 0.26	12.8
MPYLLEMKNITKTFGSVKAIDNVCLRLNAGEIVSLCGENGSGKSTLMKVLCGIYPHGSYEGEIIFAGEEIQASHIRDTERKGIAIIHQELALVKELTVLENIFLGNEITHNGIMDYDLMTLRCQKLLAQVSLSISPDTRVGDLGLGQQQLVEIAKALNKQVRLLILDEPTASLTEQETSILLDIIRDLQQHGIACIYISHKLNEVKAISDTICVIRDGQHIGTRDAAGMSEDDIITMMVGRELTALYPNEPHTTGDEILRIEHLTAWHPVNRHIKRVNDVSFSLKRGEILGIAGLVGAGRTETIQCLFGVWPGQWEGKIYIDGKQVDIRNCQQAIAQGIAMVPEDRKRDGIVPVMAVGKNITLAALNKFTGGISQLDDAAEQKCILESIQQLKVKTSSPDLAIGRLSGGNQQKAILARCLLLNPRILILDEPTRGIDIGAKYEIYKLINQLVQQGIAVIVISSELPEVLGLSDRVLVMHEGKLKANLINHNLTQEQVMEAALRSEHHVEKQSV			2.9 ± 0.53		7.37 ± 2.8		9.14					
MQAEILLTLKLQQKLFADPRRISLLKHIALSGSISQGAKDAGISYKSAWDAINEMNQLSEHILVERATGGKGGGGAVLTRYGQRLIQLYDLLAQIQQKAFDVLSDDDALPLNSLLAAISRFSLQTSARNQWFGTITARDHDDVQQHVDVLLADGKTRLKVAITAQSGARLGLDEGKEVLILLKAPWVGITQDEAVAQNADNQLPGIISHIERGAEQCEVLMALPDGQTLCATVPVNEATSLQQGQNVTAYFNADSVIIATLC [P0A9G8]	5.338 ± 0.023	6.41 ± 0.61	3.04 ± 0.29	6.38 ± 0.15	12.7 ± 0.41	6.2 ± 0.59	12.13 ± 0.038	5.85 ± 0.37	6.82 ± 1.4	5.84 ± 0.2	5.703 ± 0.02	11.88 ± 0.075
MQALLLEQQDGKTLASVQTLDESRLPEGDVTVDVHWSSLNYKDALAITGKGKIIRNFPMIPGIDFAGTVRTSEDPRFHAGQEVLLTGWGVGENHWGGLAEQARVKGDWLVAMPQGLDARKAMIIGTAGFTAMLCVMALEDAGVRPQDGEIVVTGASGGVGSTAVALLHKLGYQVVAVSGRESTHEYLKSLGASRVLPRDEFAESRPLEKQVWAGAIDTVGDKVLAKVLAQMNYGGCVAACGLAGGFTLPTTVMPFILRNVRLQGVDSVMTPPERRAQAWQRLVADLPESFYTQAAKEISLSEAPNFAEAIINNQIQGRTLVKVN	5.18 ± 0.35	5.67 ± 0.37	3.03 ± 0.091		10.63 ± 0.024	6.5 ± 0.39	13 ± 0.96	5.271 ± 0.034	5.7 ± 1.2	4.6639 ± 0.0045	5.25 ± 0.21	9.06 ± 0.27
MQARVKWVEGLTFLGESASGHQILMDGNSGDKAPSPMEMVLMAAGGCSAIDVVSILQKGRQDVVDCEVKLTSERREEAPRLFTHINLHFIVTGRDLKDAAVARAVDLSAEKYCSVALMLEKAVNITHSYEVVAA [P0ADX1]	5.2 ± 0.18	5.8 ± 1.1	> 4	6.49 ± 0.41	10.8 ± 3.3	5.45 ± 0.51		5.55 ± 1.8	4.69 ± 0.32	5.32 ± 0.37	4.88 ± 0.78	8.73 ± 0.8
MQATATTLDHEQEYTPINSRNKVLVASLIGTAIEFFDFYIYATAAVIVFPHIFFPQGDPTAATLQSLATFAIAFVARPIGSAVFGHFGDRVGRKATLVASLLTMGISTVVIGLLPGYATIGIFAPLLLALARFGQGLGLGGEWGGAALLATENAPPRKRALYGSFPQLGAPIGFFFANGTFLLLSWLLTDEQFMSWGWRVPFIFSAVLVIIGLYVRVSLHESPVFEKVAKAKKQVKIPLGTLLTKHVRVTVLGTFIMLATYTLFYIMTVYSMTFSTAAAPVGLGLPRNEVLWMLMMAVIGFGVMVPVAGLLADAFGRRKSMVIITTLIILFALFAFNPLLGSGNPILVFAFLLLGLSLMGLTFGPMGALLPELFPTEVRYTGASFSYNVASILGASVAPYIAAWLQTNYGLGAVGLYLAAMAGLTLIALLLTHETRHQSL					2.58 ± 0.1	2.33 ± 0.58	2.89 ± 1.6					
MQEIMQFVGRHPILSIAWIALLVAVLVTTFKSLTSKVKVITRGEATRLINKEDAVVVDLRQRDDFRKGHIAGSINLLPSEIKANNVGELEKHKDKPVIVVDGSGMQCQEPANALTKAGFAQVFVLKEGVAGWAGENLPLVRGK [P0AG27]	5.92 ± 0.38	5.77 ± 1	3.71 ± 0.18		10.9 ± 1.4	6.47 ± 0.095		6.89 ± 0.76	6.06 ± 0.078	5.7 ± 0.28	5.96 ± 0.49	
MQENQQITKKEQYNLNKLQKRLRRNVGEAIADFNMIEEGDRIMVCLSGGKDSYTMLEILRNLQQSAPINFSLVAVNLDQKQPGFPEHVLPEYLEKLGVEYKIVEENTYGIVKEKIPEGKTTCSLCSRLRRGILYRTATELGATKIALGHHRDDILQTLFLNMFYGGKMKGMPPKLMSDDGKHIVIRPLAYCREKDIQRFADAKAFPIIPCNLCGSQPNLQRQVIADMLRDWDKRYPGRIETMFSAMQNVVPSHLCDTNLFDFKGITHGSEVVNGGDLAFDREEIPLQPACWQPEEDENQLDELRLNVVEVK	5.11 ± 0.8	1.44	1.63 ± 0.051	2.26 ± 0.035	2.85 ± 0.35	2.23 ± 0.24	4.26 ± 0.73	3.63 ± 0.23	0.983 ± 0.28	1.0485 ± 0.00067	1.26	1.58 ± 0.57
MQERHTEQDYRALLIADTPIIDVRAPIEFEHGAMPAAINLPLMNNDERAAVGTCYKQQGSDAALALGHKLVAGEIRQQRMDAWRAACLQNPQGILCCARGGQRSHIVQSWLHAAGIDYPLVEGGYKALRQTAIQATIELAQKPIVLIGGCTGSGKTLLVQQQPNGVDLEGLARHRGSAFGRTLQPQLSQASFENLLAAEMLKTDARQNLRLWVLEDESRMIGSNHLPECLRERMTQAAIAVVEDPFEIRLERLNEEYFLRMHHDFTHAYGDEQGWQEYCEYLHHGLSAIKRRLGLQRYNELAARLDAALTTQLTTGSTDGHLAWLVPLLEEYYDPMYRYQLEKKAEKVVFRGEWAEVAEWVKAR	4.83 ± 0.89	4.417 ± 0.0075	3.16 ± 0.1	5.87 ± 0.98	10.2 ± 1.6	5.64 ± 0.47		4.43 ± 0.057	4.35 ± 0.77	3.75 ± 0.5	4.54 ± 0.24	7.414 ± 0.067
MQESIQLVIDSLPFLLKGAGYTLQLSIGGMFFGLLLGFILALMRLSPIWPVRWLARFYISIFRGTPLIAQLFMIYYGLPQFGIELDPIPSAMIGLSLNTAAYAAETLRAAISSIDKGQWEAAASIGMTPWQTMRRAILPQAARVALPPLSNSFISLVKDTSLAATIQVPELFRQAQLITSRTLEVFTMYLAASLIYWIMATVLSTLQNHFENQLNRQEREPK [P0AFT2]			3.14	5.37 ± 0.3	15.7 ± 0.28	6 ± 0.41	11.9 ± 0.19	7.13	7.23		6.07 ± 0.14	11.2 ± 4.2
MQEYTNHSDTTFALRNISFRVPGRTLLHPLSLTFPAGKVTGLIGHNGSGKSTLLKMLGRHQPPSEGEILLDAQPLESWSSKAFARKVAYLPQQLPPAEGMTVRELVAIGRYPWHGALGRFGAADREKVEEAISLVGLKPLAHRLVDSLSGGERQRAWIAMLVAQDSRCLLLDEPTSALDIAHQVDVLSLVHRLSQERGLTVIAVLHDINMAARYCDYLVALRGGEMIAQGTPAEIMRGETLEMIYGIPMGILPHPAGAAPVSFVY	5.18		2.65 ± 0.19	6.7	11.4		12.9 ± 3	5.55		5.19 ± 0.12	6.03 ± 0.81	10.7
MQFDWSAIWPAIPLLIEGAKMTLWISVLGLAGGLVIGLLAGFARTFGGWIANHVALVFIEVIRGTPIVVQVMFIYFALPMAFNDLRIDPFTAAVVTIMINSGAYIAEITRGAVLSIHKGFREAGLALGLSRWETIRYVILPLALRRMLPPLGNQWIISIKDTSLFIVIGVAELTRQGQEIIAGNFRALEIWSAVAVFYLIITLVLSFILRRLERRMKIL [P0AEQ6]	7.5 ± 0.32	5.82 ± 0.19	3.216 ± 0.017	6.15 ± 0.25			13 ± 0.43	5.86 ± 0.24	6.66 ± 0.23	6.3 ± 1.3	6.75 ± 0.56	11.4 ± 4.3
MQFLNMFFFDIYPYIAGAVFLIGSWLRYDYGQYTWRAASSQMLDRKGMNLASNLFHIGILGIFVGHFFGMLTPHWMYEAWLPIEVKQKMAMFAGGASGVLCLIGGVLLLKRRLFSPRVRATTTGADILILSLLVIQCALGLLTIPFSAQHMDGSEMMKLVGWAQSVVTFHGGASQHLDGVAFIFRLHLVLGMTLFLLFPFSRLIHIWSVPVEYLTRKYQLVRARH												> 16

Source: the supplement of paper PMC11246515
